B1: TPR 5TU (parent)
chain: GGAUCUUCUCGAUCUAACAAAAAAGACAAAUCUGCCACAAAGCUUGAGAGCAUCUUCGGAUGCAGAGGCGGCAGCCUUCGGUGGCGCGAUAGCGCCAACGUUCUCAACUAUGACACGCAAAACGCGUGCUCCGUUGAAUGGAGUUUAUCAUG

This sample holds only a part of the variants without activity.

We go through 83 variants from the RNAGym collection of RNA variant scans (doi:10.1073/pnas.2313332121).

Variants of B1 are the subject of this data set. Briefly: polymerase ribozyme fitness, log enrichment relative to wild type (log ratio); higher = more active; in vitro selection for triplet polymerase activity. The method in brief: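 To select mutant libraries of each subunit of a heterodimeric triplet polymerase ribozyme, built by PCR and transcribed, each was annealed with a biotinylated primer, partner subunit and triplets, then incubated frozen at −7 °C. Extended constructs were gel-excised, captured on streptavidin beads and amplified by RT-PCR, in one round carried out in triplicate. Illumina sequencing of input and output libraries kept genotypes with ≥10 input reads and ≥1 read per output. Fitness is the base-2 logarithm of genotype enrichment relative to wild-type enrichment, from inverse-variance-weighted replicate averages.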
In the case of U56G A64C, the “polymerase ribozyme fitness (log ratio)” value is no more than -4.2.
U56A C76G: the “polymerase ribozyme fitness (log ratio)” value is no more than -4.2.
U56A G84A A91G: the “polymerase ribozyme fitness (log ratio)” value was -3.59.
U56A U109C G141U: the “polymerase ribozyme fitness (log ratio)” value was -2.56.
Regarding U56A C93A A106G, the “polymerase ribozyme fitness (log ratio)” value is -1.97.
The result for U56A U144C reads 0.537.
U55G U56A U82A U145A: the “polymerase ribozyme fitness (log ratio)” value is -1.23.
Consider U56A U148C, for which the “polymerase ribozyme fitness (log ratio)” value was -1.25.
Take U56A C93U U102G G140A: the “polymerase ribozyme fitness (log ratio)” value was no more than -4.2.
In the case of U56A C95U, the “polymerase ribozyme fitness (log ratio)” value came to 0.199.
On to U56A C96U U148A, for which the “polymerase ribozyme fitness (log ratio)” value is -3.44.
On to C57G C129G, for which the “polymerase ribozyme fitness (log ratio)” value was -2.74.
Regarding U55G U82A G84U U102C, the “polymerase ribozyme fitness (log ratio)” value is -3.21.
On to U56A G84A C105A C131U, for which the “polymerase ribozyme fitness (log ratio)” value is -1.2.
The result for U56A G58C G59C C76G reads no more than -4.2; that for C57A C114U A120G C129U, no more than -4.2; that for C57G A73G U82A C96G U101C C116A, -3.9.
Consider C57A U90A C103G, for which the “polymerase ribozyme fitness (log ratio)” value is no more than -4.2.
The result for U56A G58U A98U G100C reads no more than -4.2; that for U56A G94A, -1.28; that for C57A G92C C123A, -0.277.
Take C57A C129U C131U U134C: the “polymerase ribozyme fitness (log ratio)” value came to 1.02.
In the case of U56A G92A A150G it was -2.08.
Consider C57A A66G C87A, for which the “polymerase ribozyme fitness (log ratio)” value was no more than -4.2.
With U56A G59U C69A C87U U101C G140U, the “polymerase ribozyme fitness (log ratio)” value was -3.01.
For the variant U56A C96A, the “polymerase ribozyme fitness (log ratio)” value was -0.833.
In the case of U56G C85G A119G G141C, the “polymerase ribozyme fitness (log ratio)” value was -2.08.
Regarding U56A C57U C63U U101A U104C C108U, the “polymerase ribozyme fitness (log ratio)” value is no more than -4.2.
As for C57A A113G, the “polymerase ribozyme fitness (log ratio)” value is -1.32.
Take U56A C131U: the “polymerase ribozyme fitness (log ratio)” value stood at 0.529.
Regarding U56A U61G G88C G136U, the “polymerase ribozyme fitness (log ratio)” value was no more than -4.2.
In the case of U56G U61G G128U, the “polymerase ribozyme fitness (log ratio)” value was -3.73.
In the case of C57A C69A C72U C85A, the “polymerase ribozyme fitness (log ratio)” value was -3.55.
In the case of U56A G143C it was -2.27; in that of U55G U56A G59C C99G A142G, -2.78.
In the case of U56G A119C U146G it was -1.1; in that of U56G C118U C123U, -0.604.
Turning to U56A G80C C93A C95A U102G C114A A150U, the “polymerase ribozyme fitness (log ratio)” value is no more than -4.2.
In the case of U56C C87U A110G it was -3.04; in that of C57G G59A A73U G88C, no more than -4.2; in that of U56A C76U C87U C129G A150C, no more than -4.2.
On to U56G A60G, for which the “polymerase ribozyme fitness (log ratio)” value is -0.515.
For the variant U56C C57A, the “polymerase ribozyme fitness (log ratio)” value worked out at 0.0626.
In the case of C57A G58C G84A A91G it was -3.28; in that of U56A U82A C96A C114G, -3.42.
As to U56A C99A, the “polymerase ribozyme fitness (log ratio)” value is -1.6.
The result for U56A G58A A73G C96U U102G G117A U135A G141A reads no more than -4.2; that for C57G A110U C123A, -4.11.
The result for C57A G83A reads -0.934.
Take C57A A91G C132G: the “polymerase ribozyme fitness (log ratio)” value was -4.05.
As for C57A C105U A120G, the “polymerase ribozyme fitness (log ratio)” value amounted to 0.486.
Regarding U56A C85A A91G G128U, the “polymerase ribozyme fitness (log ratio)” value was no more than -4.2.
As for C57A A73G, the “polymerase ribozyme fitness (log ratio)” value amounted to 0.866.
U56A C93A A98G: the “polymerase ribozyme fitness (log ratio)” value is -2.63.
In the case of C57G A97U, the “polymerase ribozyme fitness (log ratio)” value is -0.704.
In the case of U56G U144A it was -0.473.
On to U56G C129U, for which the “polymerase ribozyme fitness (log ratio)” value was -0.408.
For the variant U56A C85G G86U, the “polymerase ribozyme fitness (log ratio)” value was no more than -4.2.
As for C57G C87U, the “polymerase ribozyme fitness (log ratio)” value was -2.97.
For the variant C57A G94C, the “polymerase ribozyme fitness (log ratio)” value came to 0.0611.
For the variant U56C U101G A120U C131A, the “polymerase ribozyme fitness (log ratio)” value is -2.44.
Regarding U55G U61A, the “polymerase ribozyme fitness (log ratio)” value was -3.22.
Take C57G C123G: the “polymerase ribozyme fitness (log ratio)” value was -0.87.
For the variant U56A U139C, the “polymerase ribozyme fitness (log ratio)” value is -3.15.
Take U56A G84A A98U U101C: the “polymerase ribozyme fitness (log ratio)” value is -1.09.
For the variant C57A U145C, the “polymerase ribozyme fitness (log ratio)” value came to 0.674.
For U56A G88C U145G, the “polymerase ribozyme fitness (log ratio)” value is -4.05.
For the variant C57G A142C, the “polymerase ribozyme fitness (log ratio)” value was -0.312.
As to U56C C69A U135A, the “polymerase ribozyme fitness (log ratio)” value was -3.01.
For the variant C57A U78G G86C A89U C96U A120U C129G, the “polymerase ribozyme fitness (log ratio)” value was no more than -4.2.
As for U56A C76U A113C, the “polymerase ribozyme fitness (log ratio)” value was -2.48.
Consider C57A C85U U146C, for which the “polymerase ribozyme fitness (log ratio)” value is -0.426.
For the variant C57A G92C G133A, the “polymerase ribozyme fitness (log ratio)” value was -4.05.
In the case of U56C C87G, the “polymerase ribozyme fitness (log ratio)” value was no more than -4.2.
With C57A C131G, the “polymerase ribozyme fitness (log ratio)” value was -3.13.
With C57A G92A, the “polymerase ribozyme fitness (log ratio)” value was -3.13.
Turning to C57A G92C, the “polymerase ribozyme fitness (log ratio)” value was -0.41.
On to U56A A106C U109G C114U C118A, for which the “polymerase ribozyme fitness (log ratio)” value is no more than -4.2.
In the case of U56A G94C A115C A121U U134A A147U it was -3.74.
As for U56A G58A C93A, the “polymerase ribozyme fitness (log ratio)” value was -1.41.
In the case of U56G C69U A91U C105G U130A it was no more than -4.2; in that of U56A A89C, -0.735; in that of U56G G58A A73G C108U A150G, no more than -4.2.
